The text below walks through data of article PMC12723162, “Alphaherpesvirus pUL21 homologs use non-canonical sequences to compete with cellular adaptors for protein phosphatase 1 binding” (The Journal of Biological Chemistry, 2025).

The subject of experiment [1] is endogenous PP1α. The experiment in a line: GFP affinity capture / co-IP of endogenous PP1α with GFP-tagged bait. Format: binding, human. As to conditions: HEK 293T cells, 24 h post-transfection, GFP-Trap, immunoblot; representative of two independent experiments. From the text: Bacterial expression plasmids encoding the mouse PP1γ catalytic domain (residues 7–300)-H6 and pUL21-H6, and mammalian expression vectors encoding pUL21(FV242AA)-GFP, pORF38-GFP and pORF38(FV255AA)-GFP, were described previously ([23]). We note that the mouse and human PP1γ catalytic domains share 100% amino acid identity. pORF38-NLT-H6 was generated by sub-cloning residues 1 to 263 of ORF38 into the vector pOPTnH ([52]). pUL21-RVxF-H6 was generated by inserting the mutations A237V and V239F into pUL21-H6 by QuikChange site-directed mutagenesis. Human PP1α was cloned from HeLa cell cDNA into a vector derived from pF5K (Promega) with an N-terminal Myc epitope tag via restriction-based cloning, and point mutations were introduced into Myc-PP1α by QuikChange mutagenesis. A plasmid encoding pUL21-GFP was generated by sub-cloning a codon-optimized synthetic UL21 gene (GeneArt) into pEGFP-N1 (Clontech), yielding an identical pUL21-GFP amino acid sequence as used in ([23]). pUL21-ΔL, -ΔR and -ΔLR were generated from this vector via inverse PCR, and point mutations were introduced via QuikChange mutagenesis.
Mycoplasma-free human embryonic kidney 293T (HEK 293T) cells (American Type Culture Collection #CRL-3216) were maintained in Dulbecco’s modified Eagle’s medium (DMEM) with high glucose (Merck), supplemented with 10% (v/v) heat-inactivated fetal calf serum and 2 mM L-glutamine (complete DMEM) in a humidified 5% CO2 atmosphere at 37 °C. The identity of the cell line was not independently confirmed.
Monolayers of HEK 293T cells were transfected with 7.7 μg of DNA per 9 cm dish, using 18 μg/ml 25 kDa branched polyethylenimine (Merck) or using TransIt-LT1 (Mirus) in accordance with the manufacturer’s instructions. Cells were harvested 24 h post-transfection and incubated for 30 min in ice-cold 10 mM Tris pH 7.5, 150 mM NaCl, 0.5 mM EDTA, 0.5% Igepal CA-630 (a.k.a. NP-40), 1% (v/v) EDTA-free protease inhibitor cocktail (Merck) before clarification at 21,000×g for 10 min at 4 °C. Lysate protein concentrations were measured using the bicinchoninic acid (BCA) assay (Pierce) and normalized before affinity capture using GFP-Trap resin (ChromoTek) following the manufacturer’s protocol. Samples were eluted by heating the resin to 95 °C for 5 min in 45 μl 2 × SDS-PAGE loading buffer. Proteins were separated by SDS-PAGE and transferred to 0.45 μm nitrocellulose membranes (PerkinElmer or Cytiva). Membranes were stained with Ponceau S and imaged using a G:Box XX9 (Syngene) before blocking in Tris-buffered saline with 0.1% TWEEN-20 (TBS-T) supplemented with 5% (w/v) non-fat milk powder. Immunoblotting was performed using antibodies diluted in blocking buffer as listed below, and immunoblots were imaged using an Odyssey CLx (LI-COR Biosciences). Densitometry was performed using Image Studio Lite version 5.2 (LI-COR Biosciences), and statistical tests were performed using Prism version 7 (GraphPad).
The following primary antibodies and dilutions were used for immunoblotting: rabbit anti-CERT 1:10,000 (Abcam #Ab72536), mouse anti-PP1α 1:1000 (Santa Cruz #sc-271762), mouse anti-Myc 1:4000 (Millipore #05–724), rat anti-tubulin (clone YL1/2) hybridoma supernatant 1:40 ([54]). The anti-CERT antibody was validated using a knock-out cell line. The anti-PP1α antibody has been validated by siRNA knockdown ([55]). The anti-Myc antibody was validated using control experiments lacking Myc-tagged transfected constructs ([56]). The anti-tubulin antibody has been validated by immunofluorescence microscopy, immuno-electron microscopy and radiolabeled immunosorbent assay ([54]). Secondary antibodies from LI-COR Biosciences were diluted 1:10,000 as follows: IRDye 680RD goat anti-rat (#926–68029) and goat anti-mouse (#926–68020), or IRDye 800CW goat anti-rabbit (#926–32221).
(Immunoblotting shows a protein as a band on a membrane.)

The next experiment concerns endogenous PP1γ. The settings on record: HEK 293T cells; cited from earlier work. From the text:
(§1) HSV-1 pUL21 was recently identified as a novel viral PP1 regulatory protein that promotes virus replication and spread. HSV-1 pUL21 and its homologues across the alphaherpesviruses comprise two folded domains ([21], [22]) that are linked by a flexible linker domain ([23]). PP1 binding to pUL21 requires a novel SLiM, termed the Twenty-one Recruitment Of Protein Phosphatase One (TROPPO) motif, that is present in the linker region and is conserved across alphaherpesviruses.

Experiment [2] relates to endogenous PP1α. As to conditions: HEK 293T cells; cited from earlier work.
Source text: as §1

Another experiment relates to endogenous PP1β. The settings on record: HEK 293T cells; cited from earlier work.
Source text: as §1

B1: pUL21-GFP (protein)
chain: MELSYATTMHYRDVVFYVTTDRNRAYFVCGGCVYSVGRPCASQPGEIAKFGLVVRGTGPDDRVVANYVRSELRQRGLQDVRPIGEDEVFLDSVCLLNPNVSSELDVINTNDVEVLDECLAEYCTSLRTSPGVLISGLRVRAQDRIIELFEHPTIVNVSSHFVYTPSPYVFALAQAHLPRLPSSLEALVSGLFDGIPAPRQPLDAHNPRTDVVITGRRAPRPIAGSGAGSGGAGAKRATVSEFVQVKHIDRVGPAGVSPAPPPNNTDSSSLVPGAQDSAPPGPTLRELWWVFYAADRALEEPRADSGLTREEVRAVRGFREQAWKLFGSAGAPRAFIGAALGLSPLQKLAVYYYIIHRERRLSPFPALVRLVGRYTQRHGLYVPRPDDPVLADAINGLFRDALAAGTTAEQLLMFDLLPPKDVPVGSDVQADSTALLRFIESQRLAVPGGVISPEHVAYLGAFLSVLYAGRGRMSAATHTARLTGVTSLVLAVGDVDRLSAFDRGAAGAASRTRAAGYLDVLLTVRLARSQHGQSV
modifications: left off: GFP (from the vector pEGFP-N1), end not stated, kept
As to B1, the “Co-IP of endogenous PP1α” value in the experiment with endogenous PP1α [1] is “efficiently precipitate endogenous PP1α”. Moreover, the “Co-precipitation of endogenous PP1γ” value in the experiment with endogenous PP1γ was “co-precipitates with endogenous PP1α, PP1β and PP1γ”. In addition, in the experiment with endogenous PP1α [2], the “Co-precipitation of endogenous PP1α” value is “co-precipitates with endogenous PP1α, PP1β and PP1γ”. In addition, in the experiment on endogenous PP1β, the “Co-precipitation of endogenous PP1β” value is “co-precipitates with endogenous PP1α, PP1β and PP1γ”.
